Results: patent US8916370B2, “Isoprene synthase variants for improved microbial production of isoprene” (Danisco US Inc., priority 2008, dated 2014)

Experiments:
[1] = biological target: P. alba isoprene synthase (IspS), full length, C-terminally TEV and His-tagged (MD09-165), FL(+)TEV, SEQ ID NO:134 (Populus alba, UniProt Q50L36); conditions: DMAPP 0.625 to 40 mM, 50 mM MgCl2, pH 8, 30° C., 15 min; ± S.D., triplicate
Description: (§1) The relative specific activity was determined and the kinetics of “N-terminally truncated” P. alba isoprene synthases were examined compared to “Full length” P. alba isoprene synthases. Four strains expressing four different constructs were used in this analysis: BL21(λDE3) pLysS with P. alba pET24a; MD09-173; MD09-165; and MD09-167 (Strains described above in detail). These strains express “full length” P. alba IspS, “truncated” P. alba IspS (the MEA truncation), “full length” C-terminally TEV and His-tagged P. alba IspS, and “truncated” C-terminally TEV and His-tagged P. alba IspS, respectively. In the experiments described below, “truncated” refers specifically to the MEA variant of P. alba IspS.
(§2) All strains were inoculated into LB containing 30 mg/L chloramphenicol(Cm) and 50 mg/L kanamycin and grown overnight in 2 mL culture tubes at 37° C. The overnight cultures were diluted 1:100 in 25 mL of LB broth containing 30 mg/L chloramphenicol(Cm) and 50 mg/L kanamycin the following morning and grown at 37° C. until OD˜0.5. Each strain was grown in triplicate. The cultures were then induced with 400 uM IPTG and incubated at 30° C. for 4 hours.

[2] = biological target: P. alba isoprene synthase (IspS), truncated MEA variant, C-terminally TEV and His-tagged (MD09-167), MEA(+)TEV, SEQ ID NO:132 (Populus alba, UniProt Q50L36); conditions: DMAPP 0.625 to 40 mM, 50 mM MgCl2, pH 8, 30° C., 15 min; ± S.D., triplicate (2.5 mM DMAPP in duplicate)
Description: as §1, §2

[3] = test system: E. coli strain MCM531 (BL21 PL.2-mKKDyI); assay: Growth inhibition of MCM531 by mevalonic acid; type: cell-based, Escherichia coli; conditions: TM3 medium with 1% glucose and yeast extract; 0, 1, 5, 10, 15 or 20 mM MVA; OD600, quadruplicate
Description: An overnight culture of MCM531 (see strain description) was back-diluted to an OD600 of 0.05 (this corresponds to an OD600 of approx 0.005 in a 96-well plate reader) (SpectraMax M2, Molecular Devices). The diluted culture was then aliquotted into separate wells in a 96-well deep-well plate into standard TM3 medium (13.6 g K2PO4, 13.6 g KH2PO4, 2.0 g MgSO4*7H2O) supplemented with 1% glucose and 0.8 g/L Biospringer yeast extract (1% Yeast extract final)) with 0, 1, 5, 10, 15 or 20 mM MVA added. […] Each MVA concentration was assayed in quadruplicate, error bars were negligible.

[4] = substrate: CC(C)=CCOP(=O)(O)OP(=O)(O)O; assay: purified protein, by the assay type; conditions: other: DMAPP 0.625 to 40 mM, 50 mM MgCl2, pH 8, 30° C., 15 min, ± S.D., triplicate

Chain of P. alba isoprene synthase (IspS), full length, C-terminally TEV and His-tagged (MD09-165), FL(+)TEV, SEQ ID NO:134 (Q50L36 with tags, fused parts or gaps): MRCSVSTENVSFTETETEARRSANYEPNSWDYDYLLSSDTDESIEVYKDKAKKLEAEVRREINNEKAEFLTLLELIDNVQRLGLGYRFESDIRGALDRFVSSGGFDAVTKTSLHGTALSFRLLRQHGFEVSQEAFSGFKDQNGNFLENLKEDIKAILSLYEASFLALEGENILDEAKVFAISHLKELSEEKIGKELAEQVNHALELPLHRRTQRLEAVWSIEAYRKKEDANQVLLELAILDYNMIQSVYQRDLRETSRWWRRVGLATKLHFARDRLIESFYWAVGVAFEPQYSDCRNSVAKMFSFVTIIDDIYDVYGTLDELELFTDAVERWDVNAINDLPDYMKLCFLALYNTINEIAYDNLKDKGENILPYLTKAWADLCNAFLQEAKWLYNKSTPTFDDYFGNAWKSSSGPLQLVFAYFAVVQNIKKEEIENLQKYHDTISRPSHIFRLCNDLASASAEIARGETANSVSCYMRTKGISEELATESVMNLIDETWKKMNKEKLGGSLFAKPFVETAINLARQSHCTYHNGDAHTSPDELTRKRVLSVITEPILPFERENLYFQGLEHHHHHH
Chain of P. alba isoprene synthase (IspS), truncated MEA variant, C-terminally TEV and His-tagged (MD09-167), MEA(+)TEV, SEQ ID NO:132 (Q50L36 with tags, fused parts or gaps): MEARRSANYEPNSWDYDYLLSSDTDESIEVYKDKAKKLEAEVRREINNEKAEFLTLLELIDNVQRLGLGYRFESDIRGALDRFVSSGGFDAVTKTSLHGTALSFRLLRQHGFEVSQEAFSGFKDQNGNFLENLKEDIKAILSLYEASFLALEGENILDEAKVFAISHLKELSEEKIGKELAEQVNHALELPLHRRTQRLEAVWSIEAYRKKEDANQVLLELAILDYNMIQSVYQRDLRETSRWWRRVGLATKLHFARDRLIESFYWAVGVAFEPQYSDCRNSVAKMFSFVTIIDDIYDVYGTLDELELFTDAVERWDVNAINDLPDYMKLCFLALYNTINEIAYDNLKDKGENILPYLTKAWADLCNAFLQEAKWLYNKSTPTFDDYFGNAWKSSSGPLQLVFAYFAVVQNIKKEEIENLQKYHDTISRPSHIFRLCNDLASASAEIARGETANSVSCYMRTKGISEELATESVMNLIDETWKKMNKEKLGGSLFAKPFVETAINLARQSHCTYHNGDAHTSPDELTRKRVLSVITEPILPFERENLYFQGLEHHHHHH

CC(C)=CCOP(=O)(O)OP(=O)(O)O [DMAPP, 3,3-dimethylallyl pyrophosphate]
KM [1]: 2400 ± 500 µM | KM [2]: 2000 ± 1000 µM

C[C@@](O)(CCO)CC(=O)O [MVA, Mevalonic Acid]
concentration at which growth was severely inhibited [3]: ≥ 5 mM

B1: P. alba isoprene synthase (IspS), full length, untagged, SEQ ID NO:120 (Populus alba) (protein)
chain: MRCSVSTENVSFTETETEARRSANYEPNSWDYDYLLSSDTDESIEVYKDKAKKLEAEVRREINNEKAEFLTLLELIDNVQRLGLGYRFESDIRGALDRFVSSGGFDAVTKTSLHGTALSFRLLRQHGFEVSQEAFSGFKDQNGNFLENLKEDIKAILSLYEASFLALEGENILDEAKVFAISHLKELSEEKIGKELAEQVNHALELPLHRRTQRLEAVWSIEAYRKKEDANQVLLELAILDYNMIQSVYQRDLRETSRWWRRVGLATKLHFARDRLIESFYWAVGVAFEPQYSDCRNSVAKMFSFVTIIDDIYDVYGTLDELELFTDAVERWDVNAINDLPDYMKLCFLALYNTINEIAYDNLKDKGENILPYLTKAWADLCNAFLQEAKWLYNKSTPTFDDYFGNAWKSSSGPLQLVFAYFAVVQNIKKEEIENLQKYHDTISRPSHIFRLCNDLASASAEIARGETANSVSCYMRTKGISEELATESVMNLIDETWKKMNKEKLGGSLFAKPFVETAINLARQSHCTYHNGDAHTSPDELTRKRVLSVITEPILPFER
Km [4]: 2400 ± 300 µM | kcat [4]: 0.72 s⁻¹

B2: P. alba isoprene synthase (IspS), N-terminally truncated MEA variant, untagged (MD09-173, pDu39), SEQ ID NO:122 (Populus alba) (protein)
chain: MEARRSANYEPNSWDYDYLLSSDTDESIEVYKDKAKKLEAEVRREINNEKAEFLTLLELIDNVQRLGLGYRFESDIRGALDRFVSSGGFDAVTKTSLHGTALSFRLLRQHGFEVSQEAFSGFKDQNGNFLENLKEDIKAILSLYEASFLALEGENILDEAKVFAISHLKELSEEKIGKELAEQVNHALELPLHRRTQRLEAVWSIEAYRKKEDANQVLLELAILDYNMIQSVYQRDLRETSRWWRRVGLATKLHFARDRLIESFYWAVGVAFEPQYSDCRNSVAKMFSFVTIIDDIYDVYGTLDELELFTDAVERWDVNAINDLPDYMKLCFLALYNTINEIAYDNLKDKGENILPYLTKAWADLCNAFLQEAKWLYNKSTPTFDDYFGNAWKSSSGPLQLVFAYFAVVQNIKKEEIENLQKYHDTISRPSHIFRLCNDLASASAEIARGETANSVSCYMRTKGISEELATESVMNLIDETWKKMNKEKLGGSLFAKPFVETAINLARQSHCTYHNGDAHTSPDELTRKRVLSVITEPILPFER
Km [4]: 1800 ± 200 µM | kcat [4]: 1.5 s⁻¹
